Here are results for three substances from paper PMC10857128.

In assay [1] the target is peppermint leaf-type ferredoxin NADP+ reductase (L-FNR) (Mentha × piperita (peppermint)).
Assay [2] addresses peppermint root-type ferredoxin NADP+ reductase (R-FNR) (Mentha × piperita (peppermint)).
For assay [3] the target is unchanged. The source holds these as a separate data set.

On to “peppermint leaf-type ferredoxin (Fd I) (natural protein)”, for which, in assay [1], the Km^Fd, FNR–Fd-dependent cytochrome c reduction (NADPH-dependent cytochrome c reductase assay, Fd varied 0.3-20 µM, 30 °C, 50 mM Tris pH 7.5) is 2.3 µM; the kcat, FNR–Fd-dependent cytochrome c reduction (NADPH-dependent cytochrome c reductase assay, Fd varied 0.3-20 µM, 30 °C, 50 mM Tris pH 7.5) was determined as 125 s^−1; the kcat/Km^Fd, FNR–Fd-dependent cytochrome c reduction (NADPH-dependent cytochrome c reductase assay, Fd varied 0.3-20 µM, 30 °C, 50 mM Tris pH 7.5) came to 54.2 µM^−1s^−1. In addition, in assay [2], the Km^Fd, FNR–Fd-dependent cytochrome c reduction (NADPH-dependent cytochrome c reductase assay, Fd varied 0.3-20 µM, 30 °C, 50 mM Tris pH 7.5) was 3.6 µM; the kcat, FNR–Fd-dependent cytochrome c reduction (NADPH-dependent cytochrome c reductase assay, Fd varied 0.3-20 µM, 30 °C, 50 mM Tris pH 7.5) was found to be 281 s^−1; the kcat/Km^Fd, FNR–Fd-dependent cytochrome c reduction (NADPH-dependent cytochrome c reductase assay, Fd varied 0.3-20 µM, 30 °C, 50 mM Tris pH 7.5) was 78.3 µM^−1s^−1.

Turning to “peppermint root-type ferredoxin (Fd II) (natural protein)”, in assay [1], the Km^Fd, FNR–Fd-dependent cytochrome c reduction (NADPH-dependent cytochrome c reductase assay, Fd varied 0.3-20 µM, 30 °C, 50 mM Tris pH 7.5) worked out at 2.8 µM; the kcat, FNR–Fd-dependent cytochrome c reduction (NADPH-dependent cytochrome c reductase assay, Fd varied 0.3-20 µM, 30 °C, 50 mM Tris pH 7.5) stood at 304 s^−1; the kcat/Km^Fd, FNR–Fd-dependent cytochrome c reduction (NADPH-dependent cytochrome c reductase assay, Fd varied 0.3-20 µM, 30 °C, 50 mM Tris pH 7.5) is 109 µM^−1s^−1. In assay [2], the Km^Fd, FNR–Fd-dependent cytochrome c reduction (NADPH-dependent cytochrome c reductase assay, Fd varied 0.3-20 µM, 30 °C, 50 mM Tris pH 7.5) amounted to 1.9 µM; the kcat, FNR–Fd-dependent cytochrome c reduction (NADPH-dependent cytochrome c reductase assay, Fd varied 0.3-20 µM, 30 °C, 50 mM Tris pH 7.5) was found to be 428 s^−1; the kcat/Km^Fd, FNR–Fd-dependent cytochrome c reduction (NADPH-dependent cytochrome c reductase assay, Fd varied 0.3-20 µM, 30 °C, 50 mM Tris pH 7.5) stood at 222 µM^−1s^−1.

On to “peppermint root-type ferredoxin (Fd III) (natural protein)”, for which, in assay [1], the Km^Fd, FNR–Fd-dependent cytochrome c reduction (NADPH-dependent cytochrome c reductase assay, Fd varied 0.3-20 µM, 30 °C, 50 mM Tris pH 7.5) worked out at 2.9 µM; the kcat, FNR–Fd-dependent cytochrome c reduction (NADPH-dependent cytochrome c reductase assay, Fd varied 0.3-20 µM, 30 °C, 50 mM Tris pH 7.5) stood at 286 s^−1; the kcat/Km^Fd, FNR–Fd-dependent cytochrome c reduction (NADPH-dependent cytochrome c reductase assay, Fd varied 0.3-20 µM, 30 °C, 50 mM Tris pH 7.5) was found to be 98.1 µM^−1s^−1. In addition, in assay [2], the Km^Fd, FNR–Fd-dependent cytochrome c reduction (NADPH-dependent cytochrome c reductase assay, Fd varied 0.3-20 µM, 30 °C, 50 mM Tris pH 7.5) came to 2.3 µM; the kcat, FNR–Fd-dependent cytochrome c reduction (NADPH-dependent cytochrome c reductase assay, Fd varied 0.3-20 µM, 30 °C, 50 mM Tris pH 7.5) was 428 s^−1; the kcat/Km^Fd, FNR–Fd-dependent cytochrome c reduction (NADPH-dependent cytochrome c reductase assay, Fd varied 0.3-20 µM, 30 °C, 50 mM Tris pH 7.5) turned out to be 189 µM^−1s^−1. Besides, the Km value for Fd III as told in the text, NADPH-dependent cytochrome c reductase assay (differs from the cell of Table 2) in assay [3] came to 2.1 µM.
